Test results published in US20190367626A1.

Key:
[1] = target: P76A TRAILshort; assay: flow cytometry of 293T cells transfected with P76A TRAILshort, isotype control staining
[2] = target: TRAILshort (UniProt P50591); assay: flow cytometry of 293T cells transfected with WT TRAILshort, isotype control staining
TRAILshort, sequence (P50591 other isoform, or with tags, fused parts or gaps): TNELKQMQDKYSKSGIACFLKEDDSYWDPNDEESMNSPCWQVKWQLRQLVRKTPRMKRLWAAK

Question: Which percent of cells in the gate [1] does the source give for “C555 labeled anti-Ig3 Isotype control (antibody)” here?
Answer: Its percent of cells in the gate is 2.2%.

Question: What about the percent of cells in the gate [2] of the same substance?
Answer: The percent of cells in the gate was 3.2%.
